Assay results published in US20250026827A1 (Alector, published 2025).
Where a chain is given by its changes, count along the chain named.

T1: mouse SIRPα on cells (mouse, UniProt P97797 32-513)
T1 construct: whole, on cells
T1 sequence (looked up): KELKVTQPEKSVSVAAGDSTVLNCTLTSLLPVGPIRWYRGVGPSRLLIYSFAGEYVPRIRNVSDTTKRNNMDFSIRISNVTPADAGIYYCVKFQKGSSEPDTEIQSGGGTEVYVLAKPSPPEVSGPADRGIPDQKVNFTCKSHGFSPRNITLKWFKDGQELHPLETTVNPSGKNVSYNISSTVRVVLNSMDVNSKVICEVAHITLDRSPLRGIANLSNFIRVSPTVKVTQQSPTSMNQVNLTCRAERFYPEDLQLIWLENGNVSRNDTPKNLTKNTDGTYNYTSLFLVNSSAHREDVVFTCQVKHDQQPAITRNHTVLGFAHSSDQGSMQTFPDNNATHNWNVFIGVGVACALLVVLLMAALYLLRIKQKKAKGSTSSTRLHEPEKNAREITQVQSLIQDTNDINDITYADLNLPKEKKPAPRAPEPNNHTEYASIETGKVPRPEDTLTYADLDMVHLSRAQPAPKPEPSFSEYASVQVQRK

T2: mouse SIRPβ1 on CHO cells (mouse)
T2 construct: Whole entry
T2 chain: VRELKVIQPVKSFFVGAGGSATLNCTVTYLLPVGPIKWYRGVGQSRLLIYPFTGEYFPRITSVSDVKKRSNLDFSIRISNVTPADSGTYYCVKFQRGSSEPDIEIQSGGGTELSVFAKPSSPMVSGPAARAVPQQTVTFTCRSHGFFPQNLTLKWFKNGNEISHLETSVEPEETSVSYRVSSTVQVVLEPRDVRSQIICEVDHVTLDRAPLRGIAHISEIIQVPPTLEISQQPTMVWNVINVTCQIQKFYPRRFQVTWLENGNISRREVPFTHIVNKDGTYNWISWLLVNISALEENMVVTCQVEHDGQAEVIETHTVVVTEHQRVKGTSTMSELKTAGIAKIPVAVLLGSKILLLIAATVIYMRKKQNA

T3: mouse SIRPα D1-Fc (mouse, UniProt P97797 32-150, limits assumed)
T3 construct: domain: D1
T3 sequence (looked up): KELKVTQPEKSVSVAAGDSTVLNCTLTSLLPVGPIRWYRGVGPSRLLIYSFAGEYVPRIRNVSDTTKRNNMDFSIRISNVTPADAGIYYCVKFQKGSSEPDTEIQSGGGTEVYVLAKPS

B1: SB-17 (antibody, V domains shown)
VH: QVQLVQSGAEVKKPGASVKVSCKASGYTFTSYGISWVRQAPGQGLEWMGWISAYNGNTNYAQKLQGRVTMTTDTSTSTAYMELRSLRSDDTAVYYCARGPLLYGDYHVRYGMDVWGQGTTVTVSS
VL: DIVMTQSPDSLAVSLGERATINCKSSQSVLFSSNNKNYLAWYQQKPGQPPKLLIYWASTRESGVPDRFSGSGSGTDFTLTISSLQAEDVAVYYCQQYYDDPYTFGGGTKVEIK
notes: IgG
B2: SB-19 (antibody, V domains shown)
VH: QVQLVQSGAEVKKPGSSVKVSCKASGGTFSSYAISWVRQAPGQGLEWMGGIIPIFGTANYAQKFQGRVTITADESTSTAYMELSSLRSEDTAVYYCARDGGGGYAYEYFQHWGQGTLVTVSS
VL: not shown
notes: IgG
B3: SB-21 (antibody, V domains shown)
VH: QVQLVQSGAEVKKPGASVKVSCKASGYTFTSNGISWVRQAPGQGLEWMGWISAYNGNTNYAQKLQGRVTMTTDTSTSTAYMELRSLRSDDTAVYYCARVGNMDQEYFDLWGRGTLVTVSS
VL: not shown
notes: IgG
B4: SB-26 (antibody, V domains shown)
VH: QVQLVQSGAEVKKPGSSVKVSCKASGGTFSSYAISWVRQAPGQGLEWMGGIIPIFGTANYAQKFQGRVTITADESTSTAYMELSSLRSEDTAVYYCARDGSAGRQEHGMDVWGQGTTVTVSS
VL: not shown
notes: IgG
B5: SB-28 (antibody, V domains shown)
VH: QLQLQESGPGLVKPSETLSLTCTVSGGSISSSSYYWGWIRQPPGKGLEWIGSISYSGSTYYNPSLKSRVTISVDTSKNQFSLKLSSVTAADTAVYYCARDPRDYSSGSSGGGWGYFDLWGRGTLVTVSS
VL: EIVLTQSPGTLSLSPGERATLSCRASQSVSSSYLAWYQQKPGQAPRLLIYGASSRATGIPDRFSGSGSGTDFTLTISRLEPEDFAVYYCQQDGNFPLTFGGGTKVEIK
notes: IgG
B6: SB-29 (antibody, V domains shown)
VH: QVQLVQSGAEVKKPGSSVKVSCKASGGTFSSYAISWVRQAPGQGLEWMGSIIPIFGTANYAQKFQGRVTITADESTSTAYMELSSLRSEDTAVYYCARAPYGSSSGYGYFDLWGRGTLVTVSS
VL: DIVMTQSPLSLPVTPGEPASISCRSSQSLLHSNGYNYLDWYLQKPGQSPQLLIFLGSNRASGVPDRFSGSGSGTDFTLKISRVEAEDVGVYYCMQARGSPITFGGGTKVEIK
notes: IgG
B7: SB-9 (antibody, V domains shown)
VH: B1 VH with S35H, G99D, P100G, L102H, H107I, R109Y
VL: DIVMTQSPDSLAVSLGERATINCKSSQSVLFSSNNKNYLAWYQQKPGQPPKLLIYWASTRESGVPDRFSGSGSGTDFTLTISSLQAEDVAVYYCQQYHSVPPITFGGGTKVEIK
notes: IgG
B8: SB-31 (antibody, V domains shown)
VH: QVQLVQSGAEVKKPGASVKVSCKASGYTFTSYYMHWVRQAPGQGLEWMGIINPGGGSTSYAQKFQGRVTMTRDTSTSTVYMELSSLRSEDTAVYYCAREGLYSSGWYIDVWGQGTLVTVSS
VL: DIQMTQSPSSVSASVGDRVTITCRASQGISSWLAWYQQKPGKAPKLLIYAASSLQSGVPSRFSGSGSGTDFTLTISSLQPEDFATYYCQQAVSHPFTFGGGTKVEIK
notes: IgG
B9: SB-11 (antibody, V domains shown)
VH: QVQLVQSGAEVKKPGSSVKVSCKASGGTFSNYAISWVRQAPGQGLEWMGGIIPIFGTANYAQKFQGRVTITADESTSTAYMELSSLRSEDTAVYYCARPVDSSSYSLGYYYGMDVWGKGTTVTVSS
VL: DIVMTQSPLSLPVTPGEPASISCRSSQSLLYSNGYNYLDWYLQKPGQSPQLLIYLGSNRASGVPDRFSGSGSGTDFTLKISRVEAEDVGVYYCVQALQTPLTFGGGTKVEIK
notes: IgG
B10: SB-33 (antibody, V domains shown)
VH: EVQLVESGGGLVQPGGSLRLSCAASGFTVSSNYMSWVRQAPGKGLEWVSVIYSGGSTYYADSVKGRFTISRDNSKNTLYLQMNSLRAEDTAVYYCARGQYTGSLDVWGQGTMVTVSS
VL: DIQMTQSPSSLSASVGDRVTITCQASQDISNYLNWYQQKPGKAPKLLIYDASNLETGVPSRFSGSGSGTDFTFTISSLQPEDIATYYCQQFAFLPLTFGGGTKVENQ
notes: IgG
B11: SB-12 (antibody, V domains shown)
VH: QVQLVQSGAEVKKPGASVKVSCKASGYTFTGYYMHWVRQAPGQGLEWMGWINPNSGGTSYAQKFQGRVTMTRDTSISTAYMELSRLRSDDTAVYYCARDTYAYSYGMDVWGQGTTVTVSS
VL: EIVMTQSPATLSVSPGERATLSCRASQSVSSNLAWYQQKPGQAPRLLIYSASTRATGIPARFSGSGSGTEFTLTISSLQSEDFAVYYCQQLDNLPYTFGGGTKVEIK
notes: IgG

What follows are binders tested against T1, mouse SIRPα on cells (assay: flow cytometry;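 for FOB: antibodies tested at 1 µg/ml for 30 min on ice against receptor-expressing cells, detected with a PE-labelled secondary antibody, read as mean fluorescence intensity relative to background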).
B1: no binding (tested: 1 ug/ml).
B2: no binding (tested: 1 ug/ml).
B3: no binding (tested: 1 ug/ml).
B4: no binding (tested: 1 ug/ml).
B5: no binding (tested: 1 ug/ml).
B6: no binding (tested: 1 ug/ml).
B7: no binding (tested: 1 ug/ml).
B8: no binding (tested: 1 ug/ml).
B9: no binding (tested: 1 ug/ml).
B10: no binding (tested: 1 ug/ml).
B11: no binding (tested: 1 ug/ml).

Molecular target: T2, mouse SIRPβ1 on CHO cells
Assay: flow cytometry;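 for FOB: antibodies tested at 1 µg/ml for 30 min on ice against receptor-expressing cells, detected with a PE-labelled secondary antibody, read as mean fluorescence intensity relative to background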
B1: no binding (tested: 1 ug/ml).
B2: no binding (tested: 1 ug/ml).
B3: no binding (tested: 1 ug/ml).
B4: no binding (tested: 1 ug/ml).
B5: no binding (tested: 1 ug/ml).
B6: no binding (tested: 1 ug/ml).
B7: no binding (tested: 1 ug/ml).
B8: no binding (tested: 1 ug/ml).
B9: no binding (tested: 1 ug/ml).
B10: no binding (tested: 1 ug/ml).
B11: no binding (tested: 1 ug/ml).

These binders were tested against T4, human SIRPα on cells (human, UniProt P78324 31-504) (assay: flow cytometry;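 for FOB: antibodies tested at 1 µg/ml for 30 min on ice against receptor-expressing cells, detected with a PE-labelled secondary antibody, read as mean fluorescence intensity relative to background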).
T4 construct: Whole entry
B1: no binding (tested: 1 ug/ml).
B2: no binding (tested: 1 ug/ml).
B3: no binding (tested: 1 ug/ml).
B4: no binding (tested: 1 ug/ml).
B5: no binding (tested: 1 ug/ml).
B6: no binding (tested: 1 ug/ml).
B7: no binding (tested: 1 ug/ml).
B8: no binding (tested: 1 ug/ml).
B9: no binding (tested: 1 ug/ml).
B10: no binding (tested: 1 ug/ml).
B11: no binding (tested: 1 ug/ml).

Molecular target: T1, mouse SIRPα on cells
Assay: flow cytometry;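 for FOB: antibodies tested at 1 µg/ml for 30 min on ice against receptor-expressing cells, detected with a PE-labelled secondary antibody, read as mean fluorescence intensity relative to background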
Remark: another data set of the same source
Binder B1 has an FOB of 1.6 fold over background.
With B2 the FOB was 0.9 fold over background.
B3 showed an FOB of 1.2 fold over background.
B4 was tested, and the FOB was 1.2 fold over background.
B5 showed an FOB of 1 fold over background.
With B6 the FOB was 0.9 fold over background.
B7 was tested, and the FOB was 0.8 fold over background.
Work on B8 yielded an FOB of 1 fold over background.
With B9 the FOB was 0.9 fold over background.
B10 showed an FOB of 1.4 fold over background.
B11 was tested, and the FOB was 1.2 fold over background.

These binders were tested against T5, human SIRPβ1 isoform 1 on cells (human, UniProt O00241 30-398) (assay: flow cytometry).
T5 construct: On CHO cells (low level), on BWZ/BW5147.G.1.4 cells (reporter cells co-express human DAP12) or on primary human myeloid cells; also called huSIRPβ1; BWZ-huSIRPβ1
T5 sequence (O00241 30-398): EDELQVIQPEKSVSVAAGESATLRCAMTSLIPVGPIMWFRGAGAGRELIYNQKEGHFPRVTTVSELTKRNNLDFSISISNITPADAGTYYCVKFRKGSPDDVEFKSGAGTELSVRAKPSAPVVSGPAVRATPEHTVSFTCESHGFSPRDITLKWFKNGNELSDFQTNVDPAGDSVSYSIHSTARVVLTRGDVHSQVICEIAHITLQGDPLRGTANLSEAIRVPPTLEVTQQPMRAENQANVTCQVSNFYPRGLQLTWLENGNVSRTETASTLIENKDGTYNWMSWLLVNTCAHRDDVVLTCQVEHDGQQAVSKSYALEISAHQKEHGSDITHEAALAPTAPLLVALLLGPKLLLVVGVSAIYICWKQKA
Binder B1 has an FOB of 2.8 fold over background.
In the case of B2, the FOB is reported as 1.8 fold over background.
For B3, the FOB was 1.9 fold over background.
Work on B4 yielded an FOB of 2 fold over background.
Work on B5 yielded an FOB of 4.1 fold over background.
Binder B6 has an FOB of 1.8 fold over background.
Binder B7 has an FOB of 1.8 fold over background.
For B8, the FOB was 3.1 fold over background.
B9 showed an FOB of 6.3 fold over background.
B10 gave an FOB of 1.4 fold over background.
In the case of B11, the FOB is reported as 1.6 fold over background.

Molecular target: T2, mouse SIRPβ1 on CHO cells
Assay: flow cytometry
Remark: another data set of the same source
For B1, the FOB was 1.3 fold over background.
For B2, the FOB was 1.3 fold over background.
B3 showed an FOB of 1.3 fold over background.
Binder B4 has an FOB of 1.3 fold over background.
Binder B5 has an FOB of 1.2 fold over background.
B6 showed an FOB of 1.2 fold over background.
In the case of B7, the FOB is reported as 1 fold over background.
B8 was tested, and the FOB was 1.4 fold over background.
With B9 the FOB was 1.2 fold over background.
With B10 the FOB was 1.3 fold over background.
B11 showed an FOB of 1.3 fold over background.

Molecular target: T4, human SIRPα on cells
Assay: flow cytometry
Remark: another data set of the same source
For B1, the FOB was 2.5 fold over background.
B2 was tested, and the FOB was 2.2 fold over background.
In the case of B3, the FOB is reported as 2 fold over background.
B4 gave an FOB of 2.1 fold over background.
In the case of B5, the FOB is reported as 2.1 fold over background.
In the case of B6, the FOB is reported as 1.9 fold over background.
B7 was tested, and the FOB was 2.1 fold over background.
B8 gave an FOB of 1.8 fold over background.
For B9, the FOB was 2.3 fold over background.
Binder B10 has an FOB of 2.2 fold over background.
With B11 the FOB was 2 fold over background.

What follows are binders tested against T6, human SIRPβ1 domain 1 (D1) Fc fusion (human, UniProt O00241 30-148) (assay: Octet, IgG avid).
T6 construct: Made in HEK293/T cells with a heterologous signal peptide; also called Human SIRPβ1 D1-Fc; Human SIRPβ1-Fc; not shown: C-terminal human IgG1 Fc
T6 sequence (O00241 30-148 limits assumed): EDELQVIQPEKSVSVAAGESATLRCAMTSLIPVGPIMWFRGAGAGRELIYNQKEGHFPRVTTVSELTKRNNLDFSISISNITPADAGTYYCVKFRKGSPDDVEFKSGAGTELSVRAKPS
B1 showed a Kd of 3.32 nM.
B2 gave a Kd of 7.41 nM.
For B3, the Kd was 5.86 nM.
Work on B4 yielded a Kd of 6.17 nM.
Work on B5 yielded a Kd of 5.59 nM.
For B6, the Kd was 10.7 nM.
Binder B7 has a Kd of 3.66 nM.
B8 showed a Kd of 3.75 nM.
In the case of B9, the Kd is reported as 3.69 nM.
Work on B10 yielded a Kd of 9.23 nM.
Work on B11 yielded a Kd of 4.94 nM.

What follows are binders tested against T7, human SIRPα domain 1 (D1) Fc fusion (human, UniProt P78324 32-149) (assay: Octet).
T7 construct: also called human SIRPα D1-Fc; Human SIRPα Fc; not shown: C-terminal human IgG1 Fc
B1: no binding (tested: 100 nM).
B2: no binding (tested: 100 nM).
B3: no binding (tested: 100 nM).
B4: no binding (tested: 100 nM).
B5: no binding (tested: 100 nM).
B6: no binding (tested: 100 nM).
B7: no binding (tested: 100 nM).
B8: no binding (tested: 100 nM).
B9: no binding (tested: 100 nM).
B10: no binding (tested: 100 nM).
B11: no binding (tested: 100 nM).

What follows are binders tested against T3, mouse SIRPα D1-Fc (assay: Octet).
Description: Briefly, Octet affinity measurements were performed by loading IgGs on-line onto AHQ sensors. Sensors were equilibrated off-line in assay buffer for 30 min and then monitored on-line for 60 seconds for baseline establishment. For avid binding measurement, sensors with loaded IgGs were exposed to 100 nM antigen (human SIRPα domain 1 (D1) Fc fusion or SIRPβ1 domain 1 (D1) Fc fusion) for 3 min, and then transferred to assay buffer for 3 min for off-rate measurement. Additional avid binding was determined by loading biotinylated SIRPβ1 monomer on SA sensors and exposing to 100 nM IgG in solution. Monovalent binding measurements were obtained by loading human SIRPα- or SIRPβ1-Fc fusion antigens onto AHQ sensor, followed by exposure to 100 nM anti-SIRPβ1 antibody Fab. Additional monovalent measurements were made by loading biotinylated human SIRPα or SIRPβ1 monomer to SA sensor followed by exposure to 100 nM Fab in solution. Kinetics data were fit using a 1:1 binding model in the data analysis software provided by ForteBio (ForteBio Data Analysis Software 7.0).
B1: no binding (tested: 100 nM).
B2: no binding (tested: 100 nM).
B3: no binding (tested: 100 nM).
B4: no binding (tested: 100 nM).
B5: no binding (tested: 100 nM).
B6: no binding (tested: 100 nM).
B7: no binding (tested: 100 nM).
B8: no binding (tested: 100 nM).
B9: no binding (tested: 100 nM).
B10: no binding (tested: 100 nM).
B11: no binding (tested: 100 nM).
